Source: the nanobody polyreactivity screen of Harvey et al. (2022)

Experiment: yeast display, Sf9 membrane polyspecificity reagent, FACS + sequencing; frameworks hold sequencing errors
Method in brief: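 Nanobodies from a synthetic yeast display library (Saccharomyces cerevisiae BJ5465), induced 36–48 hours with galactose, were stained 1 hour at 4 °C with 10% biotinylated, detergent-solubilized Sf9 membrane reagent, enriched on streptavidin microbeads, then FACS-sorted. Anti-HA (expression) and streptavidin (reagent binding) fluorescence set low and high (top ~1%) gates. Polyreactivity labels come from the gate of origin. Genes were colony-PCR amplified, MiSeq 2 × 250 sequenced and filtered by CDR length.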

Row | Sequence | polyreactivity (PSR sort gate)
1 | QVQLVESGGGLVQPGGSLRLSCAASGRTFYEYAMGWYRPAPGKERELVAGITSGGSTNYADSVKGRFTISRDNAKNTVYLQMNSLKPEDTAVYYCAASYWGYEYDYWGQGTQVTVSS | low polyreactivity
2 | QVQLVESGGGLVQPGGSLRLSCAASGRTIERNTMGWYRQAPGKERELFAAISYDGGSTYYADSVKGRFTISRDNAKNTVYLQMNSLKPEDTAVYYCNAGGSEIYRSPFDYWGQGTEVTVSS | low polyreactivity
3 | QVQLVESGGGLVQPGGSLRLSCAASGRTYRWYAMGWYRQAPGKERELVASITSGVSTYYADSVTGRCTISRDNAKNTVNLQMNSLKPEDTAVYYCAAGYRFTTYLVYNYWGQGTHVTVSS | high polyreactivity
4 | QVQLVESGGGLVQPGGSLRLSCAASGSIFRVYAMGWYRQAPGKERELVAAISRGGNTNYADSVKGRFTISRDNAKNTVYLQKNSLKPEDTAVYYCNARYYSWDWWIGYDYWGQGTLVTVSS | high polyreactivity
5 | QVQLVESGGGLVQPGGSLRLSCAASGSIFRYYAMGWYRQAPGKERELVATIRSGGSTTYADSVKGRFTISRDNAKNTVYLQMNSLKPEDTAVYYCAATYGWRFTTFPSGYASDYYWGQGTQVTVSS | high polyreactivity
6 | QVQLVESGGGLVQPGGSLRLSCAASGSTFGGYAKGWYRQAPGQERELVAAITWDTGTTYYADSVKGRFTISRDNAKNTVYLQMNSLKPEDTAVYYCAAVGSTTTGVRRRGYWGQGTQVNVSS | high polyreactivity
7 | QVQLVESGGGLVQPGGSLRLSCAASGSTFSWNAMGWYRQAPGKERELVASITWGGGSTYYADSVKGRFTISRDTAKNTVYLQMNSLKPEDTAVYYSAAKYGTSKYSRYYYWGQGTQVTVSS | high polyreactivity
8 | QVQLVESGGGLVQSGCSLRLSCAASGSTFYRYAMGWYRQAPGKERELVAAITSAGSTNYADSVKGRFTISRDNAKNTVYLLMNSLKPEDTAVYYCAADHGRPYFSYDYWGQGTQVTVSS | low polyreactivity
9 | QVQLVESGGGLVQSGGILRLSCAASGGTFYANAMGWYRQAPGKERELVAAITSGGSTNYADSVKRRFTISRDNAKNTVSLQMNSLKPEDTAVYYCNASAQRRYWHSYFRRYDYWGQGTQVTVSS | low polyreactivity
10 | QVQLVESGGGLVQSGGSLLLSCAASGFTFGRYAMAWYRQAPGKERELVAAIRRSGGSTYYADSVKGRFTISRDNAKNTVYLQMNSRKPEDTAVFYCAAVRWWTYGNYDYWGQGTQVTVSS | high polyreactivity
11 | QVQLVESGGGLVQSGGSLRLICAASGRTSLNYAMGWYRQAPGKEMELVAAITRGGGGTYYADSVKGRFTISRDNAKNTVYFQMNSLKPEDTAVYYCAREHKRGGYGYWGQGTQVTVSS | high polyreactivity
12 | QVQLVESGGGLVQSGGSLRLSCAASGFIFPVYTLGWYRHAPGKERELDAAITQIGGSTHYADSVKGRFTISRDNAKNTVYLQMNSLKPEDTAVFYCKAVPSYGTEYDYWGQGTQVTVSS | low polyreactivity
13 | QVQLVESGGGLVQSGGSLRLSCAASGLIFTSYAMGWYRQAPGKERELVAAISYSGGTTFYADYVKGRFTISRDNAKNTVYLQMNSLKPEDTAVYYCAADSLSTTHDTLGYDRDDYWGQGTQVTVSS | low polyreactivity
14 | QVQLVESGGGLVQSGGSLRLSCAASGLIIGLYAMGWYRQAPGTERELVAAISDNGARTYYADSVKGRFTISRDYAKYTVYLQMNSLKPEDTAVDYCARDQSYHYNYWGQGTQVTVSS | low polyreactivity
15 | QVQLVESGGGLVQSGGSLRLSCAASGLTFRRNPMGRYRQAPGKERELVATITSGGSTNYADSVKGRFTISRDNAKNTVYLQMNSLKTEDTAVYYCAARTTYITPWAGRYFSWDYDYWGQGTQVTVSS | high polyreactivity
16 | QVQLVESGGGLVQSGGSLRLSCAASGLTLGHNAMGLYRQAPGKERELVAAITRGGSTNYSDSVKGRFTISRDNAKNTVYFHMNSLKPEYTAVYSCAADLYLGWYYGFEYDYWGQGTQVTVSS | low polyreactivity
17 | QVQLVESGGGLVQSGGSLRLSCAASGNTFHSNAMGWYRQAPGKERELVAAITPSDGDTYYADSVKGRFTISRDNAKNTVYLQMNSLKPEDTAVYYCNARKQVYKIYYSDYRRYDYWGQGTQVTVSS | low polyreactivity
18 | QVQLVESGGGLVQSGGSLRLSCAASGRIFVYYAMGWYIQAPGKEMELVAAIDGSDGTTYYADSVKGRFTISRDNAKNTVYLQMNSLKPEDTSVYYCAKDNSLPDYDYWGQGTQVTVSS | low polyreactivity
19 | QVQLVESGGGLVQSGGSLRLSCAASGRTFRYYVMGWYRQAPGKERELVADISRGGGRTRYADSVKGRFTISRDNAKNTVYLQMNSLKRDDTAVYYCGARSYSGQFGYWGQGTQVTVSS | high polyreactivity
20 | QVQLVESGGGLVQSGGSLRLSCAASGSIFGYYAMGWYRPAPGKERELVAGITNSGDTNYADSVKGRFTISRDNAKNTVYLQMNSLKPEDTAVYYCAAESWAALYGMDYWGQGTQVTVSS | low polyreactivity
21 | QVQLVESGGGLVQSGGSLRLSCAASGSIFTGYAMGWYRQAPGKERELVAAITGRGTRTYYADSLKGRFTISRDNANNTVSLQMNSLKPEDTAVYYCAAPVGASSYRDYYWGQGTQVNVSS | high polyreactivity
22 | QVQLVESGGGLVQSGGSLRLSCAASGSIFTWYTMGWYRQAPGKERELVAAISWSGGRTYYADSVKGRFTISRDNAKNTVYLQMNSLKPEDTAVYYCAASAYGRPPFDYWGQGTQVTVSS | high polyreactivity

Row | Sequence | polyreactivity (PSR sort gate)
23 | QVQLVESGGGLVQSGGSLRLSCAASGSIYAYYAMGWYRQAPGKERELVAAIRFNSGRTYYADSVKGRFTISRDNAKNTVYLQMKSLKPEDTAVYYCAARDGYVYSHRYDYWGQGTQVTVSS | high polyreactivity
24 | QVQLVESGGGLVQSGGSLRLSCAASGSTFSINPMGWYRQAPGKERELFAAITWRGVRTYYADSVKGRFTISRDNAKNTVYFQMNSLKPEDTAVYYCAADVVVAGHPGFDYWGQGTQVTVSS | high polyreactivity
25 | QVQLVESGGGLVQSGGSLRLSCAASGSTSGTNAMGWYRQAPGKERELVAGISYRGGSTYYADSVKGRFTISRDNAKNTVYLHMNSLKPEDTEVYYCAASRNISYWGQGTQVTVSS | high polyreactivity
26 | QVQLVESGGGLVQSGGSLRLSCAGSGSTFHYNAMGWYRQAPGKEREFVAAISRTGTSTYYADSVKGRFTISRDNAKNTVYLQMNSLKPEDTAVYYFAAKSLRSGMGYWGQGTQVTVSS | high polyreactivity
27 | QVQLVESGGGLVQTGGSLRLSCAASGRIFKHYAMGWYTHAPGKERELVAAITNGGRTNYSDSVKGRFTISRDNAKNTVYLQMNSLKPEDTAVSYCARDRKIAYLSEGFDYWGQGTQVSVSS | low polyreactivity
28 | QVQLVESGGGLVQTGGSLRLSCAASGRIFRYYDMGWYRQAPGKEREFVAAITRSGAITYYADSVKGRFTISRDNAKNTVYLQMNSLKPEDTAVYYCFAVRHYALYAGRPYDYWGQGTQVTVSS | low polyreactivity
29 | QVQLVESGGGLVQTGGTLRLSCAASGRSFNRNARAWYRLAPGKERELVAAISSRVGRTYYADSVKGRFTISRDNAKNSVYLKMNSLKQEETAVYYCNAVYSQSCYFYRFDYWGQGTQVNVSS | high polyreactivity
30 | QVQLVESGGGLVQVGGSLRLSCAASGFIFTHYAMGWYRQAPGKERELVAAISVDGGDTYYADSVKGRFTISRDNAKNTVYLQMNSLKPEDTAVYYYWGQGTQVTVSS | low polyreactivity
31 | QVQLVESGGGLVQVGGSLRLSCAASGSNFPANAMGWYRQAPGKEWEFVAAINWSTGTTYYADSVKGRFTISRDNAKNTVYLQMNSLKPEDTAVYYCNASDQAKYDYWGQGTQVTVSS | low polyreactivity
32 | QVQLVESGGGLVRAGGSLRLSWAASGFTFTSYAMGWYRQAPGKERELVAAITVTGGRTYYADSVKGRFTISRDNAKNTVYLQMNSLKPEDTAVYYCATVFSLSSPYWKHYYWGQGTQVTVSS | high polyreactivity
33 | QVQLVESGGGLYQAGGSLRLSCAASGLIFTTNAMGWYRQAPGKEREFVAAISPSGGSTYYADSVKGRFTISRDNAKNTVYLQMNSLKPEDTAVYYCAARYSPVWHKYYYWGQGTQVTVSS | high polyreactivity
34 | QVQLVESGGGSDQAGGSLRLSCAASGSTFQYNVMGWYRQAPRKERELVAAIRQSGSTTYYADSVKGRFTISRDNAKNTVYLQMNSLKPEDTAVYYCAKRYHNWANSRMDYWGQGTQVTVSS | low polyreactivity
35 | QVQLVESGGGSLRLSCAASGLTFGGYTMGWIRQAPGKERELVAAISSSDSTNYADSVKGRFTISRDNAKNTVYVQMNSLKPEDTALYSCSADSGQWSRYSSFGDEGDSWGQGTQVTVSS | low polyreactivity
36 | QVQLVESGGGSVQAGGSLRLSCAASGFTFDKNTMGWYRQAPGKERELVAAISSSGSSTYYADSVKGRFTISRDNAKNTVYLQMNSLKPEDTAVYYCAADYWGWDDYSEYYYWGQGTQVTVSS | high polyreactivity
37 | QVQLVESGGGSVQAGGSLRLSCAASGSIFRANAMGWYRQAPGKERELVAAITANGGSTYYADSVKGRFTISRDNAKNTVYLQMNSLKPEDTAVYYCNNARVRGARFDYWGQGTQVTVSS | high polyreactivity
38 | QVQLVESGGGSVQAGGSLRLSCAASGSTFGGNVMGWYRQAPGKERELVAAISGSGGSTYYADSVKGRFTISRDTAKNTVYFQMNSLKPVDTSVYYCNVESSQSSSGFDYWGQGTQVTVSS | low polyreactivity
39 | QVQLVESGGGSVQAGGSLRLSCAASGSTFVANTMGWYRQAPGKERELVASITSGDSTNYADSVKGRFTISRDNAKNTVYLQMNSLKPEDTAVYYCAAESVWYYVGGQLIYYYWGQGTQVTVSS | low polyreactivity
40 | QVQLVESGGGVFQAGGTLSLSCAASGITFYPNDMGWYRQATGKETELVAAITTNDGDTYYADSVKGRFTISRDNAKNTVYLQMNSLKPEYTAVYYCAADSGSTSEYEYWGQGTQVTVSS | low polyreactivity
41 | QVQLVESGGGVLQAGGSLRLSCAASGRTFCFYAMGWSRQAPGKERELVASITWRGGRTYYADSVKGRFTISRDNAKNTVYLQMNSLKPEDTAVYYCAAVTFSYDGYDYWGQGTQVTVSS | low polyreactivity
42 | QVQLVESGGGVVQAGGILRFSCAASGRTFAPDAMGWYRQAPGKERELDAAITNGGSTTYADSVKGRFTISRDNAKNTVYLHMNSLNPEDTAVYYCAADIVSSTDYPFDYWGQGTQVNVSS | low polyreactivity
43 | QVQLVESGGGVVQAGGRLRLSCAASGGIYRYYAMGWYRQAPGKERELVAVITKSGGDTYYADSVKGRFTISRDNAKNTVYLQMNSLKPEDTAVYYCAAVYGYYTYWIAGFTWAGDYWGQGTQVTVSS | low polyreactivity
